Source: publication PMC4865869

Experiments:
[1] = molecular target: GST-fused RasC (Dictyostelium) (UniProt P32253); assay: pull-down; GFP-FRB/Kin^TOR with active GST-fused GTPase (GppNHp-loaded or constitutively active mutant), 25 ug of each, 50 mM Tris-Cl, 150 mM NaCl, 5 mM MgCl2, 1 mM beta-mercaptoethanol, pH 7.5; GSH resin; washes with 500 mM NaCl; GFP and GST immunoblotting
[2] = molecular target: constitutively active RasC mutant (RasC^CA, G62L) (Dictyostelium) (UniProt P32253); assay: as above
[3] = molecular target: Rap1 pre-loaded with mGppNHp (GDI assay) (Dictyostelium) (UniProt P18613); assay: guanine nucleotide dissociation inhibition (GDI) assay; Rap1 or RasG pre-loaded with fluorescent mGppNHp, excess unlabeled GppNHp, with or without 1 uM RIP3^RBD; kobs of fluorescence decay; without effector kobs Rap1 5.0 x 10^-5 s^-1, RasG 5.9 x 10^-5 s^-1
Chain of UniProt P18613 (P18613 whole entry): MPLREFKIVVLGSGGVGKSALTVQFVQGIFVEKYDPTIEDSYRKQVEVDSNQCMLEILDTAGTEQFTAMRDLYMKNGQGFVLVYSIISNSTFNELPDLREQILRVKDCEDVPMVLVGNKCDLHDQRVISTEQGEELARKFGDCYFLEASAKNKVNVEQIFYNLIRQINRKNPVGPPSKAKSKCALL

Row | Substance | binding efficiency (percent) [1] | binding efficiency (percent) [2] | kobs of mGppNHp dissociation from Rap1 with 1 uM RIP3^RBD [3]
1 | GFP-fused TOR catalytic domain (FRB/Kin^TOR, aa 1820-2380) (from UniProt Q86C65 1820-2380) (domain or fragment) | 9% | 9% | –
2 | RIP3^RBD (aa 511-838) (domain or fragment) | – | – | 1e-07 s⁻¹
